According to FireProtDB (doi:10.1093/oxfordjournals.jbchem.a002919):

B1: 3-isopropylmalate dehydrogenase, P50455 (parent)
chain: MGFTVALIQGDGIGPEIVSKSKRILAKINELYSLPIEYIEVEAGDRALARYGEALPKDSLKIIDKADIILKGPVGESAADVVVKLRQIYDMYANIRPAKSIPGIDTKYGNVDILIVRENTEDLYKGFEHIVSDGVAVGMKIITRFASERIAKVGLNFALRRRKKVTCVHKANVMRITDGLFAEACRSVLKGKVEYSEMYVDAAAANLVRNPQMFDVIVTENVYGDILSDEASQIAGSLGIAPSANIGDKKALFEPVHGAAFDIAGKNIGNPTAFLLSVSMMYERMYELSNDDRYIKASRALENAIYLVYKERKALTPDVGGNATTDDLINEIYNKLG

Variants of: B1
Details: Sulfurisphaera tokodaii (strain DSM 16993 / JCM 10545 / NBRC 100140 / 7); pH 7; Thermal; CD; Potassium phosphate 20 mM; structure 1WPW; whole UniProt chain shown

MGFTVALIQGDGIGPEIVSKSKRILAKINELYSLPIEYIEVEAGDRALARYGEALPKDSLKIIDKADIILKGPVGESAADVVVKLRQIYDMYANIRPAKSIPGIDTKYGNVDILIVRENTEDLYKGFEHIVSDGVAVGMKIITRFASERIAKVGLNFALRRRKKVTCVHKANVMRITDGLFAEACRSVLKGKVEYSEMYVDAAAANLVRNPQMFDVIVTENVYGDILSDEASQIAGSLGIAPSANIGDKKALFEPVHGAAFDIAGKNIGNPTAFLLSVSMMLERMYELSNDDRYIKASRALENAIYLVYKERKALTPDVGGNATTDDLINEIYNKLG [Y282L]
Tm: 94.7 °C | change of melting temperature, mutant - wild type (higher = more stable): -1.3 °C

MGFTVALIQGDGIGPEIVSKSKRILAKINELYSLPIEYIEVEAGDRALARYGEALPKDSLKIIDKADIILKGPVGESAADVVVKLRQIYDMYANIRPAKSIPGIDTKYGNVDILIVRENTEDLYKGFEHIVSDGVAVGMKIITRFASERIARVALNFALRRRKKVTCVHKANVMRITDGLFAEACRSVLKGKVEYSEMYVDAAAANLVRNPQMFDVIVTENVYGDILSDEASQIAGSLGIAPSANIGDKKALFEPVHGAAFDIAGKNIGNPTAFLLSVSMMYERMYELSNDDRYIKASRALENAIYLVYKERKALTPDVGGNATTDDLINEIYNKLG [K152R G154A]
Tm: 97.2 °C | change of melting temperature, mutant - wild type (higher = more stable): 1.2 °C

MGFTVALIQGDGIGPEIVSKSKRILAKINELYSLPIEYIEVEAGDRALARYGEALPKDSLKIIDKADIILKGPVGESAADVVVKLRQIYDMYANIRPAKSIPGIDTKYGNVDILIVRENTEDLYKGFEHIVSDGVAVGMKIITRFASERIAKVGLNFALRRRKKVTCVHKANVMRITDGLFAEACRSVLKGKVEYSEMYVDAAAANLVRNPQMFDVIVTENVYGDILSDEASQIAGSLGIAPSANIGDKKALFEPVHGSAPDIAGKNIGNPTAFLLSVSMMYERMYELSNDDRYIKASRALENAIYLVYKERKALTPDVGGNATTDDLINEIYNKLG [A259S F261P]
Tm: 97.1 °C | change of melting temperature, mutant - wild type (higher = more stable): 1.1 °C

MGFTVALIQGDGIGPEIVSKSKRILAKINELYSLPIEYIEVEAGDRALARYGEALPKDSLKIIDKADIILKGPVGESAADVVVKLRQIYDMYANIRPAKSIPGIDTKYGNVDILIVRENTEDLYKGFEHIVSDGVAVGMKIITRFASERIAKVALNFALRRRKKVTCVHKANVMRITDGLFAEACRSVLKGKVEYSEMYVDAAAANLVRNPQMFDVIVTENVYGDILSDEASQIAGSLGIAPSANIGDKKALFEPVHGAAFDIAGKNIGNPTAFLLSVSMMYERMYELSNDDRYIKASRALENAIYLVYKERKALTPDVGGNATTDDLINEIYNKLG [G154A]
Tm: 97.9 °C | change of melting temperature, mutant - wild type (higher = more stable): 1.9 °C

MGFTVALIQGDGIGPEIVSKSKRILAKINELYSLPIEYIEVEAGDRALARYGEALPKDSLKIIDKADIILKGPVGESAADVVVKLRQIYDMYANIRPAKSIPGIDTKYGNVDILIVRENTEDLYKGFEHIVSDGVAVGMKIITRFASERIARVGLNFALRRRKKVTCVHKANVMRITDGLFAEACRSVLKGKVEYSEMYVDAAAANLVRNPQMFDVIVTENVYGDILSDEASQIAGSLGIAPSANIGDKKALFEPVHGAAFDIAGKNIGNPTAFLLSVSMMYERMYELSNDDRYIKASRALENAIYLVYKERKALTPDVGGNATTDDLINEIYNKLG [K152R]
Tm: 95.6 °C | change of melting temperature, mutant - wild type (higher = more stable): -0.4 °C

MGFTVALIQGDGIGPEIVSKSKRILAKINELYSLPIEYIEVEAGDRALARYGEALPKDSLKIIDKADIILKGPVGESAADVVVKLRQIYDLYANLRPAKSIPGIDTKYGNVDILIVRENTEDLYKGFEHIVSDGVAVGMKIITRFASERIARVALNFALRRRKKVTCVHKANVMRITDGLFAEACRSVLKGKVEYSEMYVDAAAANLVRNPQMFDVIVTENVYGDILSDEASQIAGSLGIAPSANIGDKKALFEPVHGSAPDIAGKNIGNPTAFLLSVSMMLERMYELSNDDRYIKASRALENAIYLVYKERKALTPDVGGNATTDDLINEIYNKLG [M91L I95L K152R G154A A259S F261P Y282L]
Tm: 96.4 °C | change of melting temperature, mutant - wild type (higher = more stable): 0.4 °C

MGFTVALIQGDGIGPEIVSKSKRILAKINELYSLPIEYIEVEAGDRALARYGEALPKDSLKIIDKADIILKGPVGESAADVVVKLRQIYDLYANLRPAKSIPGIDTKYGNVDILIVRENTEDLYKGFEHIVSDGVAVGMKIITRFASERIAKVGLNFALRRRKKVTCVHKANVMRITDGLFAEACRSVLKGKVEYSEMYVDAAAANLVRNPQMFDVIVTENVYGDILSDEASQIAGSLGIAPSANIGDKKALFEPVHGAAFDIAGKNIGNPTAFLLSVSMMYERMYELSNDDRYIKASRALENAIYLVYKERKALTPDVGGNATTDDLINEIYNKLG [M91L I95L]
Tm: 99.2 °C | change of melting temperature, mutant - wild type (higher = more stable): 3.2 °C
